Values of other authors in publication PMC13242717.

Target: spike protein (SARS-CoV-2) (UniProt P0DTC2)

## spike protein (from UniProt P0DTC2)
  Kd: 300 nM
